According to patent US9254322B2, “Compositions comprising E-selectin antagonists and uses therefor” (The University of Queensland, priority 2007, dated 2016):

Tests used:
[1] = test system: long-term reconstituting hematopoietic stem cells; experiment: HSC cycling and number in vivo following cytotoxic insult with 5-fluorouracil in wild-type and E-selectin KO mice
Procedure: Adult mice (10-14 week-old) with homologous deletion of the E-selectin gene were administered intravenously a single dose of 5-FU at 150 mg/kg. At days 2 and 6 following 5-FU, mice were injected intraperitoneally BrdU 100 mg/kg followed by a continuous dose of 1 mg/mL in their drinking water at a concentration of 1 mg/mL. 18 hours following the injection of BrdU. Mice were sacrificed, their bone marrow cells collected as described above and stained with the following combination of antibodies: a) biotinylated antibodies against lineage-specific antigens CD3, CD5, B220/CD45R, CD11b, Gr-1/Ly-6C/G, CD41, Ter119 together with streptavidin conjugated to PercP-Cy5.5; b) fluorescein isothiocyanate (FITC) conjugated anti-CD48; c) phycoerythrin (PE) conjugated anti-CD150; d) PECy7 conjugated anti-Sca-1/Ly-6A/E; f) allophycocyanin (APC) conjugated anti-CD117 antibodies. True hematopoietic stem cells with the phenotype Lineage-negative, Sca1-positive, CD117-positive, CD41-negative, CD48-negative, CD150-positive were counted and sorted as described above. Sorted cells were cytospun on glass slides and stained with anti-BrdU antibodies as described above.

[2] = test system: hematopoietic stem and progenitor cells; experiment: Mobilization of HSC with recombinant human pegylated G-CSF in wild-type and E-selectin KO mice; type: in vivo, C57BL/6 mice; conditions: 3-day course, total 1 mg/kg s.c.
Procedure: Mobilization was induced in wild-type C57BL/6 mice and in C57BL/6 mice carrying homologous deletion of the E-selectin gene (E-selectin KO mice), using recombinant human G-CSF following a mobilization dosing and protocol similar to that used for human patients.
Adult mice (10- to 14-week old males) were administered recombinant human pegylated G-CSF (granulocyte colony stimulating factor) subcutaneously. Two doses were given 36 hours apart, each at 0.5 mg/kg. The G-CSF used was Neulasta, from Amgen. Neulasta was diluted to 0.1 mg/mL in sterile saline for injection and 100 μL used per injection into 20 g mice. In some experiments, a cohort of ‘control’ mice received saline injections alone.
Blood containing the mobilized HSC, was collected 3 days following the initial G-CSF injection using heparin as anticoagulant (13 units of sodium heparin/mL blood). Four different assays were performed on the blood to determine the extent of HSC mobilization. Some of these assays are surrogate measures of mobilization that are commonly used in the clinical setting; that is they measure associated changes, not HSC content directly. These are total blood leukocyte counts and numbers colony forming cells (CFC) in the blood. The third assay based on phenotypic analysis (expression of a panel of surface markers which define long-term reconstituting HSC), while directly measuring HSC, also detect some progenitor cell populations. Phenotypic enumeration is commonly used to determine HSC mobilization in human patients (a different array of cell-surface markers are used in mice). […]
A) Blood leukocyte counts were measured on a Sysmex KX21 automated haematology analyser (Roche).
B) Colony forming cell assay. […] The number of colony forming cells (CFC) per mL of blood can then been calculated. […]

[3] = test system: hematopoietic stem and progenitor cells; experiment: G-CSF mobilization after 8 rounds of cyclophosphamide chemotherapy in wild-type and E-selectin KO mice; type: in vivo; conditions: mice pre-treated with 8 fortnightly rounds of cyclophosphamide 200 mg/kg, 6 weeks rest, then G-CSF; FIG. 8
Procedure: Wild-type and E-selectin KO mice were first administered 8 consecutive rounds of chemotherapy. The chemotherapeutic agent used was the alkylating agent cyclophosphamide administered as a single intraperitoneal injection at 200 mg/kg. Mice were given 8 rounds of cyclophosphamide chemotherapy at fortnightly intervals, then left to recover for 6 weeks before administration of G-CSF (total 1 mg/kg as above) and blood collected 3 days later at HSC mobilization. Blood was analyzed for total leukocyte count, Colony forming cells and phenotypic HSC as described above.

In the case of `O=c1[nH]cc(F)c(=O)[nH]1` [5FU, 5-fluorouracil], the “HSC numbers per femur, E-selectin-/- versus WT mice” value ([1]; day 7 after single dose 150 mg/kg, FIG. 4) is reported as 5 fold and the “BrdU incorporation in hematopoietic stem cells, E-selectin knock-out versus wild-type mice” value ([1]; days 3 and 7 after single dose 150 mg/kg, BrdU in last 17 hours, FIG. 3) is reported as “significantly lower”.

B1: pegylated G-CSF: recombinant human pegylated G-CSF (granulocyte colony stimulating factor), Neulasta from Amgen (protein, UniProt P09919 31-207, looked up)
Granulocyte …: TPLGPASSLPQSFLLKCLEQVRKIQGDGAALQEKLVSECATYKLCHPEELVLLGHSLGIPWAPLSSCPSQALQLAGCLSQLHSGLFLYQGLLQALEGISPELGPTLDTLQLDVADFATTIWQQMEELGMAPALQPTQGAMPAFASAFQRRAGGVLVASHLQSFLEVSYRVLRHLAQP
modifications: PEG (pegfilgrastim)
notes: recombinant human pegylated G-CSF (granulocyte colony stimulating factor), Neulasta from Amgen
B1 was tested, and the “number of phenotypic HSC per mL of mobilized blood, E-selectin KO versus wild-type mice” value ([2]; FIG. 7C) was 2.5 fold, the “number of CFC per mL of mobilized blood, E-selectin KO versus wild-type mice” value ([2]; blood collected 3 days after first injection, FIG. 7B) was 2.5 fold and the “number of functional long-term reconstituting HSC per mL of mobilized blood, E-selectin KO versus wild-type mice” value ([2]; competitive long-term reconstitution assay) was 12 fold. The “CFC per mL of peripheral blood, E-selectin KO versus wild-type mice” value [3] was 5 fold and the “phenotypic HSC per mL of peripheral blood, E-selectin KO versus wild-type mice” value [3] was 2.5 fold.
